Biological target: T1, CasEnd-36 (synthetic construct)
T1 chain: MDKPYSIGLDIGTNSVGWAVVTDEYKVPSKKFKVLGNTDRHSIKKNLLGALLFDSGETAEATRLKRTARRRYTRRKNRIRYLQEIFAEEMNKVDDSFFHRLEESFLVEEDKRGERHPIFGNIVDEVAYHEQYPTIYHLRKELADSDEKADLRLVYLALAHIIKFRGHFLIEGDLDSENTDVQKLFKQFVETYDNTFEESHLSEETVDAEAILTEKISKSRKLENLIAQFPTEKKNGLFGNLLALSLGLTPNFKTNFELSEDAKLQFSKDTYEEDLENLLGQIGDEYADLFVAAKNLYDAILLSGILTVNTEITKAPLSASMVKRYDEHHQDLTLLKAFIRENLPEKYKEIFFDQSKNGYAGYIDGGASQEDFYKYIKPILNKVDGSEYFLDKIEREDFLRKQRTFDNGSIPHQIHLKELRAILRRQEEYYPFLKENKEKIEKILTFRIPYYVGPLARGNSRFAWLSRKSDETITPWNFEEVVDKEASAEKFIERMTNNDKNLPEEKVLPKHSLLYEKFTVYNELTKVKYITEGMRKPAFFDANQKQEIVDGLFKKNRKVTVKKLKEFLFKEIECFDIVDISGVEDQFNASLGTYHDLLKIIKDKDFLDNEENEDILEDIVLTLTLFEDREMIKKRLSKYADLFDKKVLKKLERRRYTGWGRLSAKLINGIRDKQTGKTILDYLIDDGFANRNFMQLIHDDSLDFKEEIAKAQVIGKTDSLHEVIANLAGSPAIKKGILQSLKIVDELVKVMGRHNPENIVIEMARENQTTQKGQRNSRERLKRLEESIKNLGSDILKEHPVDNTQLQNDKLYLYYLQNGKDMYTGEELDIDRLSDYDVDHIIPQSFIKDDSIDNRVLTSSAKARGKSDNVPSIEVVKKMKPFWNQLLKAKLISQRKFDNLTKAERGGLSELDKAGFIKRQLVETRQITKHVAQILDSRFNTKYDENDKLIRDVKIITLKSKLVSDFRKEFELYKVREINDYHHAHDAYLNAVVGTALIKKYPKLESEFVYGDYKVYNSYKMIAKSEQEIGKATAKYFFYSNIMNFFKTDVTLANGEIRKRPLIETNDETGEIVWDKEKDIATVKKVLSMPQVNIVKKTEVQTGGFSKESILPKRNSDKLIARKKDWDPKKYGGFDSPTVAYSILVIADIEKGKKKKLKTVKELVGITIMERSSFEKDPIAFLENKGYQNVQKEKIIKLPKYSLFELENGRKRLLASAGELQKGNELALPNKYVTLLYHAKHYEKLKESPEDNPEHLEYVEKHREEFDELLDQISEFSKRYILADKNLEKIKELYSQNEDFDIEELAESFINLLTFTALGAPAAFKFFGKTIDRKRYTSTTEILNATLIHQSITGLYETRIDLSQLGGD
Test: cell_activity; +++; HEK293T; PAM not stated
How it was run: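 Editing activity was scored as the fraction of GFP+ cells on day 4 by flow cytometry. BFP-expressing HEK293T cells (250,000) received by nucleofection 200 ng plasmid for the RT-Cas fusion protein and 200 ng template RNA plasmid designed to convert BFP to GFP.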

B1: BFP-to-GFP template RNA ; BFP reporter protospacer (ssRNA ; dsDNA)
RNA: GCCGAAGCACUGCACGCCGUGUUUUAGAGCUAGAAAUAGCAAGUUAAAAUAAGGCUAGUCCGUUAUCAACUUGAAAAAGUGGCACCGAGUCGGUGCACCCUGACGUACGGCGUGCAGUGCUU
DNA 1: GCCGAAGCACTGCACGCCGT
DNA 2: ACGGCGTGCAGTGCTTCGGC
Q: Which activity does the source give for B1 here?
A: ≥ 100 % of reference

Reference: patent US20250092426, “CAS ENDONUCLEASES AND RELATED METHODS” (Flagship Pioneering Innovations VII, LLC, published 2025)
